Experimental findings from PMC9080631 are described below.

The target of this series is T1, alpha-methylacyl-CoA racemase (AMACR) (UniProt Q9UHK6 1-382).
T1 sequence: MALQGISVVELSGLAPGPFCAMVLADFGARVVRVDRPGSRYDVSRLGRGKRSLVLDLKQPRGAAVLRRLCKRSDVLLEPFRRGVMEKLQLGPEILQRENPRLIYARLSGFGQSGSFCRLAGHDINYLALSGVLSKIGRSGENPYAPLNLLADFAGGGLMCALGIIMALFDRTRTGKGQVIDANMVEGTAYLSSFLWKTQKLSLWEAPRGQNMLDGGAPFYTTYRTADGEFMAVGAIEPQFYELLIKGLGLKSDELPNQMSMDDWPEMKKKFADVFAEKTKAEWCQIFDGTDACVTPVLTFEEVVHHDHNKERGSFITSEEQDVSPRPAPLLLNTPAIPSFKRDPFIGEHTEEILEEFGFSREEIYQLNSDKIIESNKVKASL
Nature of the series: ELAA.

As for AACCAAATATCTACGCATCATTTTTCCTTT (ssDNA) [truncated C14 (N30)], the Kd (commonly the concentration at which binding is half-saturated) came out at 150 ± 55.8 nM.

B1: DC14 (dimeric truncated C14) (ssDNA)
DNA: AACCAAATATCTACGCATCATTTTTCCTTTAACCAAATATCTACGCATCATTTTTCCTTT
With B1, the Kd turned out to be 66.6 ± 17 nM.

Regarding ACTTTTATCTCTCCTAACCTGTCCTGGGGT (ssDNA) [truncated C20 (N30)], the dissociation constant (Kd) was found to be 206 ± 36.4 nM.

Molecule GTCGAACCGTAGGGGCTATCTGTTGTGGGC (ssDNA) [truncated B4 (N30)] returned a Kd of 869 ± 215 nM.

Take TGAACTACTTAGTTTTATCCACTTATCCTG (ssDNA) [truncated A24 (N30)]: binding was put at a Kd of 477 ± 170 nM.

CTTTATGTGTCGGGATCAGATACACATCCG (ssDNA) [truncated A38 (N30)] had a Kd of 813 ± 405 nM.

Molecule AAAAATTTTTCCTTGTATGTCATTCTCTCA (ssDNA) [truncated B38 (N30)] came in with a dissociation constant Kd of 173 ± 91.8 nM.
